Source: paper PMC2172333 (The Journal of Cell Biology, 2004)
One block for each binder: values may come before it.

Legend:
Experiment in all cases: pull-down
MBP-Bfa1 = target: T1, MBP-Bfa1 (yeast, UniProt P47113 1-574)
T1 sequence: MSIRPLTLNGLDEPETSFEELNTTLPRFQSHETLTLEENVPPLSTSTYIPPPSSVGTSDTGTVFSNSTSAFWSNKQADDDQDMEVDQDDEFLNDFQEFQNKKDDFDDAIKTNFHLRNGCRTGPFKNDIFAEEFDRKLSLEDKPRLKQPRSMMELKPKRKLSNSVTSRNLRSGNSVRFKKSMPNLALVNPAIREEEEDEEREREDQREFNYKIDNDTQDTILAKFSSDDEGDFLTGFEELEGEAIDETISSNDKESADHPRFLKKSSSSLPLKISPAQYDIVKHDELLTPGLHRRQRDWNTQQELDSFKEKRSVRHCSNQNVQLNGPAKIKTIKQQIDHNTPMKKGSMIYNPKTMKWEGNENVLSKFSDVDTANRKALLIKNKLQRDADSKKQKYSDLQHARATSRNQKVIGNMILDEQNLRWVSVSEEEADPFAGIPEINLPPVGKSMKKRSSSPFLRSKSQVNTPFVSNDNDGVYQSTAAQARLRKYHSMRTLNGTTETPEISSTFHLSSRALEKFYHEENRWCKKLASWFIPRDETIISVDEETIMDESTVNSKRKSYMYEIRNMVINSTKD

MBP-Bub2 = target: T2, MBP-Bub2 (yeast, UniProt P26448 1-306)
T2 sequence: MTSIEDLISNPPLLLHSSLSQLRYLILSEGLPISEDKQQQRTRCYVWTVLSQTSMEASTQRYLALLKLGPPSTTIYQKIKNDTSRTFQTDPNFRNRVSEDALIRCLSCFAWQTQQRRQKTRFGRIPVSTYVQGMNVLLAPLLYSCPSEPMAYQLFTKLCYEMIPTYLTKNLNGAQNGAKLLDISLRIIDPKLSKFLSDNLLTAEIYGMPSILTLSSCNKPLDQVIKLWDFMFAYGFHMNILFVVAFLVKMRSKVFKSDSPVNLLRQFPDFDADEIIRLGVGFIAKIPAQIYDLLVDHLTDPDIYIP

[1] = target: T3, NH2-terminal domain of Net1 (Net1 1-600) (yeast, UniProt P47035 1-600)
T3 sequence: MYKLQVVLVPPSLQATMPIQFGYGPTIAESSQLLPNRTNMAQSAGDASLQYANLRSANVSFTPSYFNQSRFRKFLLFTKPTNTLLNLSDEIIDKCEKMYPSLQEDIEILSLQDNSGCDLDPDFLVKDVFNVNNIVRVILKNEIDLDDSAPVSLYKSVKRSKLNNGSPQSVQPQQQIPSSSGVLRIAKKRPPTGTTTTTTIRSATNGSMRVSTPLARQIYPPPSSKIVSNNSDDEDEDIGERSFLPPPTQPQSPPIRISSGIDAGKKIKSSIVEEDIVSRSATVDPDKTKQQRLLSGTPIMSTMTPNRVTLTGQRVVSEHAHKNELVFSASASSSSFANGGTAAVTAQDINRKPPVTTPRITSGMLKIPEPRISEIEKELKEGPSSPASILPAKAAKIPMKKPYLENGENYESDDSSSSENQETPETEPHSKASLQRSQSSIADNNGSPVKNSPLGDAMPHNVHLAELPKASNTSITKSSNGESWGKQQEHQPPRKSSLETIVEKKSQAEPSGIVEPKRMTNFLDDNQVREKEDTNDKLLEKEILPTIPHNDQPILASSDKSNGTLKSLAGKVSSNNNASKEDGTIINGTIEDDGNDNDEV

binding result (MBP-Bfa1): binds
binding result (MBP-Bub2): binds
B1: His6-Tem1 (natural protein)
chain: MATPSTGANNSIPAVRNQVEVQVGLVGDAQVGKTSLMVKYVQNIYDKEYTQTLGVNFLKRKVSIRSTDIIFSIMDLGGQREFINMLPIATVGSSVIIFLFDLTRPETLSSIKEWYRQAYGLNDSAIPILVGTKYDLLIDLDPEYQEQISRTSMKYAQVMNAPLIFCSTAKSINIQKIFKIALAKIFNLTLTIPEINEIGDPLLIYKHLGGQQHRHHNKSQDRKSHNIRKPSSSPSSKAPSPGVNT

binding result [1]: binds
B2: MBP-Cdc14 (natural protein)
chain: MRRSVYLDNTIEFLRGRVYLGAYDYTPEDTDELVFFTVEDAIFYNSFHLDFGPMNIGHLYRFAVIFHEILNDPENANKAVVFYSSASTRQRANAACMLCCYMILVQAWTPHQVLQPLAQVDPPFMPFRDAGYSNADFEITIQDVVYGVWRAKEKGLIDLHSFNLESYEKYEHVEFGDFNVLTPDFIAFASPQEDHPKGYLATKSSHLNQPFKSVLNFFANNNVQLVVRLNSHLYNKKHFEDIGIQHLDLIFEDGTCPDLSIVKNFVGAAETIIKRGGKIAVHCKAGLGRTGCLIGAHLIYTYGFTANECIGFLRFIRPGMVVGPQQHWLYLHQNDFREWKYTTRISLKPSEAIGGLYPLISLEEYRLQKKKLKDDKRVAQNNIEGELRDLTMTPPSNGHGALSARNSSQPSTANNGSNSFKSSAVPQTSPGQPRKGQNGSNTIEDINNNRNPTSHANRKVVIESNNSDDESMQDTNGTSNHYPKVSRKKNDISSASSSRMEDNEPSATNINNAADDTILRQLLPKNRRVTSGRRTTSAAGGIRKISGSIKK

binding result (MBP-Bfa1): binds
B3: GST-Bub2 (natural protein)
chain: T2 sequence
